Columns and labels:
[1] = target: bt-MalE (Escherichia coli) [MBP: P0AEX9]; test: Biacore kinetics, bt-MalE on streptavidin SA chip, buffer M3 (5 mM DTT), 25 °C, Langmuir model
[2] = target: bt-MalE (Escherichia coli) [MBP: P0AEX9]; test: Biacore kinetics, bt-MalE on SA chip, buffer M2 (no reducing agent), heterogeneous analyte model, population 2 (kon2), taken as the non-coupled molecules of the L53ANBD preparation
[3] = target: bt-MalE (Escherichia coli) [MBP: P0AEX9]; test: Biacore kinetics, bt-MalE on SA chip, buffer M2 (no reducing agent), heterogeneous analyte model, population 2 (kon2), taken as the non-coupled molecules of the N45ANBD preparation
[4] = target: bt-MalE (Escherichia coli) [MBP: P0AEX9]; test: Biacore kinetics, bt-MalE on SA chip, buffer M2 (no reducing agent), heterogeneous analyte model, population 2 (kon2), taken as the non-coupled molecules of the R23ANBD preparation
[5] = target: bt-MalE (Escherichia coli) [MBP: P0AEX9]; test: Biacore kinetics, bt-MalE on SA chip, buffer M2 (no reducing agent), heterogeneous analyte model, population 2 (kon2), taken as the non-coupled molecules of the T46ANBD preparation, possibly dimeric

Row | kon [1] [M⁻¹ s⁻¹] | kon [2] [M⁻¹ s⁻¹] | kon [3] [M⁻¹ s⁻¹] | kon [4] [M⁻¹ s⁻¹] | kon [5] [M⁻¹ s⁻¹] | Substance
1 | 370000 | 580000 | – | – | – | DarpOff7(L53C) (designed binder)
2 | 290000 | – | 240000 | – | – | DarpOff7(N45C) (designed binder)
3 | 410000 | – | – | 430000 | – | DarpOff7(R23C) (designed binder)
4 | 170000 | – | – | – | 18000 | DarpOff7(T46C) (designed binder)

Source: patent publication EP2103936A1
